Measured values taken from PMC9638939.

Tested on: T1, hADAR2-R2D E488Q E488Q (Homo sapiens), P78563-2
T1 sequence: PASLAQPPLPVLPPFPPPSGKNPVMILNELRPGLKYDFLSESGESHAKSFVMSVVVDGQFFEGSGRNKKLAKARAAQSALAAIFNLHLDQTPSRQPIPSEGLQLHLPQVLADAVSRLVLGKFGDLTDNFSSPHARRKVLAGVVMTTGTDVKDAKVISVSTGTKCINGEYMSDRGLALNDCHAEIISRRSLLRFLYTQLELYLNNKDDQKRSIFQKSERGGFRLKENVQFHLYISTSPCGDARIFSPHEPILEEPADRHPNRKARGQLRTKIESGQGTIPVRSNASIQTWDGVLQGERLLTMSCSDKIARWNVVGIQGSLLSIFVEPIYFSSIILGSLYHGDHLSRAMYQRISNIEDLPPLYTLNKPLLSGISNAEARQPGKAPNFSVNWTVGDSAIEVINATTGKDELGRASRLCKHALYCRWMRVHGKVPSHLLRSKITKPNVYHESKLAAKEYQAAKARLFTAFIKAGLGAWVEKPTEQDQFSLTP
Test: EMSA
Conditions: N at position 13 of strand 1 = 8-azanebularine; EMSA: labeled strand hybridized to complement 1:3 in 1X TE pH 7.5; protein 0.25-256 nM (GG) or 0-260 nM (UA); binding buffer, salt and temperature not given in …

| Sequence | Kd |
| --- | --- |
| GCUCGCGAUGCGNGAGGGCUCUGAUAGCUACG / CGUAGCUAUCAGAGCCCCCCGGCAUCGCGAGC [GLI1 (GG) 32mer, azaN] | 6 nM |
| GCUCGCGAUGCUNGAGGGCUCUGAUAGCUACG / CGUAGCUAUCAGAGCCCCCCAGCAUCGCGAGC [GLI1 (UA) 32mer, azaN] | 0.9 nM |
